We go through one molecule from patent US20080241130A1 (published 2008).

The target in assay [1] is T1, human IL-17R.Fc (human).
T1 construct: also called hIL-17R.Fc; IL-17RA.Fc
As to the kind of experiment: indirect sandwich ELISA; receptor.Fc captured on goat anti-human IgG-Fc, biotinylated cytokine titrated. On the procedure: (§1) Binding of human IL-17F, hIL-17A or hIL-17F/IL-17A to human IL-17R.Fc (hIL-17R.Fc) and IL-17RC.Fc (hIL-17RC.Fc) was determined by indirect sandwich ELISA. ELISA plates (Costar, Cambridge Mass.) were coated overnight with 10 μg/ml goat anti-human IgG-Fc (Bethyl Laboratories, Montgomery, Tex.). Human IL-17R.Fc or hIL17-RC.Fc was then loaded at 6 ng/ml and 30 ng/ml, respectively, for 3 hours, followed by serial dilutions of biotinylated IL-17A, IL-17F or IL-17F/IL-17A for 2 hours. The plate was developed with Poly-HRP Streptavidin (Pierce Biotechnology, Rockford, Ill.) and TMB Substrate (KPL Labs, Gaithersburg, Md.).
(§2) The binding of hIL-17F, hIL-17A or hIL-17F/IL-17A to hIL-17R.Fc and/or hIL-17RC.Fc was evaluated by indirect sandwich ELISA. All three cytokines bound to hIL-17RC.Fc with approximately the same EC₅₀ of 18-25 ng/ml (FIG. 1B). However, the EC₅₀ for the three cytokines were different for binding to hIL-17R.Fc. The tightest binding occurred between hIL-17A and hIL-17R.Fc with an EC₅₀ of 25 ng/ml. Human IL-17F bound weakly to hIL-17R.Fc with an EC₅₀ greater than 2000 ng/ml.

The target in assay [2] is T2, human IL-17RC.Fc (human).
T2 construct: also called hIL-17RC.Fc
Briefly: indirect sandwich ELISA: IL-17RC.Fc captured on goat anti-human IgG-Fc, biotinylated cytokine titrated, Poly-HRP streptavidin. On the procedure:
as §1, §2
Background: In an ELISA, binding on a coated surface is turned into a signal by an enzyme label.

T2 sequence (chain, as listed by the source limits assumed): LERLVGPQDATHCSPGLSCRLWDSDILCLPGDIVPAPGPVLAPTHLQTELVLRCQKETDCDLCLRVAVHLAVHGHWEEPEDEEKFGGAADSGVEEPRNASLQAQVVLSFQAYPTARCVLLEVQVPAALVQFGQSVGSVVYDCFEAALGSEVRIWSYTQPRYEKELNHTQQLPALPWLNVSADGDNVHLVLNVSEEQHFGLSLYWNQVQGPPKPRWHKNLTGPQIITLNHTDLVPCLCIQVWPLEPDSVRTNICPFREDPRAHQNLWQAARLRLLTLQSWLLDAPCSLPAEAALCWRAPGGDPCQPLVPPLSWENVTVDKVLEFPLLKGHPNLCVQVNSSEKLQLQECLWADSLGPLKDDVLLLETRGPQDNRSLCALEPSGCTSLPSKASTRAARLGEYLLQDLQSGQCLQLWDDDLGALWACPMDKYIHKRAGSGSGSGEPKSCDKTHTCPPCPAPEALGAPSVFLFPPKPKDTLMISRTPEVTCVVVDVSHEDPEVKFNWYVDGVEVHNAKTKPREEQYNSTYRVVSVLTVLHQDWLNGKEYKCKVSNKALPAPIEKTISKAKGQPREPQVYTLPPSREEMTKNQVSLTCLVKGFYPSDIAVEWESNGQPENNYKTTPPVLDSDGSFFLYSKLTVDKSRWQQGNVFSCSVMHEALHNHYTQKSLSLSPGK
T1 sequence (chain, as listed by the source limits assumed): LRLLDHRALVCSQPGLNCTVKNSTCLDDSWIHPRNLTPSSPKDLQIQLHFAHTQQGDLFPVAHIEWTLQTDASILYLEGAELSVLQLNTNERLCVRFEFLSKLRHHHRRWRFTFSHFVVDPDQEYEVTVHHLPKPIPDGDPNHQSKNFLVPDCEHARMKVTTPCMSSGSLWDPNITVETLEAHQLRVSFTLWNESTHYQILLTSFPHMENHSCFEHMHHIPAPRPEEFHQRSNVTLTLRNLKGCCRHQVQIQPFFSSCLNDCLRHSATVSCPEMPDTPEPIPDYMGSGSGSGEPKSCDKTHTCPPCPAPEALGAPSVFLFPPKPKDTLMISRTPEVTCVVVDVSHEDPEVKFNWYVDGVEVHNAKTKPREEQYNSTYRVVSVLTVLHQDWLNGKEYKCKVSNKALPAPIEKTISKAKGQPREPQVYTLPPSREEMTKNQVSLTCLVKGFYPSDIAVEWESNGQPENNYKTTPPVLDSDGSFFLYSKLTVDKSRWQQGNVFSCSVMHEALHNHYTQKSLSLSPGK

B1: human IL-17F (ligand)
chain: RKIPKVGHTFFQKPESCPPVPGGSMKLDIGIINENQRVSMSRNIESRSTSPWNYTVTWDPNRYPSEVVQAQCRNLGCINAQGKEDISMNSVPIQQETLVVRRKHQGCSVSFQLEKVLVTVGCTCVTPVIHHVQ
modifications: biotinylated in the ELISA (FluoReporter Mini-biotin-XX kit); sites not stated
notes: Homodimer; also called hIL-17F
One may read the EC50 as the midpoint of the concentration-response curve. What is called EC50 (read off the curve) is the concentration at which the effect is half-maximal. The low end stands for greater potency, the high end for weaker potency. In assay [1], B1 gave an EC50 greater than 2 µg/mL. For the same molecule, the “EC50 (read off the curve)” value in assay [2] was roughly 0.02 µg/mL.
